Laboratory results from the RNAGym collection of RNA variant scans (doi:10.1073/pnas.2313332121).
Fewer inactive variants are shown than the library holds.

B1: TPR 5TU (parent)
chain: GGAUCUUCUCGAUCUAACAAAAAAGACAAAUCUGCCACAAAGCUUGAGAGCAUCUUCGGAUGCAGAGGCGGCAGCCUUCGGUGGCGCGAUAGCGCCAACGUUCUCAACUAUGACACGCAAAACGCGUGCUCCGUUGAAUGGAGUUUAUCAUG

Variants of: B1
Assay: polymerase ribozyme fitness, log enrichment relative to wild type (log ratio); higher = more active; in vitro selection for triplet polymerase activity
Outline: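 Input and output libraries were sequenced on Illumina after a single in vitro selection round, run in triplicate on PCR-built, transcribed mutant libraries of each subunit of a heterodimeric triplet polymerase ribozyme. Selection annealed libraries to a biotinylated primer, the partner subunit and triplets, incubated them frozen at −7 °C, then gel-excised extended constructs for streptavidin-bead capture and RT-PCR. Genotypes with ≥10 input reads and ≥1 read per output were kept. Fitness is the logarithm, taken in base 2, of genotype enrichment divided by wild-type enrichment, using inverse-variance-weighted replicate averages.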

Polymerase ribozyme fitness (log ratio), -2.08:
A26U C51U G58C

Polymerase ribozyme fitness (log ratio), -3.27:
A26U G48A

Polymerase ribozyme fitness (log ratio), -3.12:
C27G

Polymerase ribozyme fitness (log ratio), -4.15:
C27U C43U C95U A119U G143C U144C

Polymerase ribozyme fitness (log ratio), -1.66:
C27U G84A
A26U G81A

Polymerase ribozyme fitness (log ratio), -2.66:
C27U C95U U102A

Polymerase ribozyme fitness (log ratio), -3.77:
C27G C95A G141C

Polymerase ribozyme fitness (log ratio), -3.87:
C27U C36A C108G U139G U145C
A26U G46U

Polymerase ribozyme fitness (log ratio), -2.73:
C27U G94A

Polymerase ribozyme fitness (log ratio), -2.95:
C27A

Polymerase ribozyme fitness (log ratio), -3.93:
A26U U44A G58A C87U A107G C123G G141C

Polymerase ribozyme fitness (log ratio), -2.83:
C27U C85U

Polymerase ribozyme fitness (log ratio), -3.86:
C27A G117A

Polymerase ribozyme fitness (log ratio), -1.18:
A26U C96U C116G

Polymerase ribozyme fitness (log ratio), -3.75:
A28C

Polymerase ribozyme fitness (log ratio), -3.11:
C27U C93U U104A

Polymerase ribozyme fitness (log ratio), -4.14:
A28C A49C C96U G133A U134G

Polymerase ribozyme fitness (log ratio), -3.52:
A26U G92C

Polymerase ribozyme fitness (log ratio), -4.19:
C27U U55A G58C C87U U111C A142U

Polymerase ribozyme fitness (log ratio), -4.11:
A26U U148A

Polymerase ribozyme fitness (log ratio), -2.33:
A26U C118A

Polymerase ribozyme fitness (log ratio), -2.17:
A26U U56A

Polymerase ribozyme fitness (log ratio), -1.62:
A26U C96U

Polymerase ribozyme fitness (log ratio), -3.36:
A26U C85U A115G

Polymerase ribozyme fitness (log ratio), -3.46:
C27U U33G C95U

Polymerase ribozyme fitness (log ratio), -4.17:
C27A A37U A91C

Polymerase ribozyme fitness (log ratio), -2.46:
C27U G62U A120C A122U

Polymerase ribozyme fitness (log ratio), -4.06:
A28C A30G C93U C103U
C27U A37C C51U C57U C95U C125A

Polymerase ribozyme fitness (log ratio), -3.72:
C27G G50A
C27U A138G

Polymerase ribozyme fitness (log ratio), -2.04:
C27U C85A

Polymerase ribozyme fitness (log ratio), -3.92:
C27G A106U
C27U U33A G92C

Polymerase ribozyme fitness (log ratio), -2.25:
C27U U55A U56A
C27U U31A G48U C85U

Polymerase ribozyme fitness (log ratio), -4.16:
A28C C93U

Polymerase ribozyme fitness (log ratio), -3.74:
C27G U55A

Polymerase ribozyme fitness (log ratio), -1.13:
C27U

Polymerase ribozyme fitness (log ratio), -2.88:
C27U C36U

Polymerase ribozyme fitness (log ratio), -4.1:
C27U A28C U44G A52C C93A

Polymerase ribozyme fitness (log ratio), -0.616:
A26U C118U

Polymerase ribozyme fitness (log ratio), -2.24:
A28G

Polymerase ribozyme fitness (log ratio), ≤ -4.2:
C27G G71A A138C A142C
C27A U45G G46A A60U C95G G124U
A28C U44A G59A C125A G143C
C27U C35A G133U C149G
C27G U45A G48U A91C
A26U G59A G83A C87G C93G A97G U104C U139C
C27G C51U G80C G86U
A26U G34U G59C G62A C75G C93G U104A G152A
C27U G59A G67C G86C C99U
A28C U61G G67A C69A C93G A113U G124U
A28C G46C C76G U82A A89C G124A
C27A A49U C87A U134C G141A
C27A G46U G50U U56A G70C U101G
C27G A49C G50U C54U C87G
C27U C79U C87G U90C C96U A121U U134G
A28G A91C G126A
C27G C72U G83U A91U C93U
C27A A28C C57G C76A A91C
A28G A52C U55C C63A C87U A91U
C27G C54U C76G U144G
A26U G65A A66U U77C C96U A106U A107U C132U U139A G143C U148A
C27A C63A G80C C85G A119C U144A
C27U G92U G100A A106C G124C A138G
A26U G46U G48U G81U G83C C99G
C27A C38G C43U C85U G133A U144C
A28C A29U A107U A115G
C27A C54U A91C G94C
A28C U55A C75G
C27U A28G A60G A98U G100A U135G
C27U A66G G88A G136A
A28C A39U C103U C116G U139G
C27U A49C A98G C99A C125U U148C
A28G A30U C32A C85A C95U A115U
C27A A37U G42C A106C C116G A121G G128A U145G
C27U U33G G68C C69U C76U C95A C103U A110C G133A U139G
A28C G80C C87G
C27G C63A C85U C87A G136A A138C
A26U G46C U55A C93U C103A A106G C114A
C27G G58A C93A C95G
C27G A37C U44A U45A C57U G68A G83A A119U A120U A147G
C27G C43U C75G U78G C129G G143A
A26U G46U A47U G74C C79G G92U G140A
C27U A28G U53G A73G C85U G86C A120U C132U
C27A C79A G84A G86U
A28C G59U A91G U135C
A28C G65U G68A A91U
A28C C51U C57A A73U C87G U101G A121U
C27A A39G U53C C95A A121U G136C
C27U A41G A47C U53A U78C C93A A110U
A28G A29U C87G C96A
C27U G34C C93A G117A
A26U G42C C93G A115U
C27U G86U C99G
A28C C43U U56A A107C
C27U G46A C75A A91U G94A
C27A A52G G128U C129U C131G A147U
A28C G42C C76G C79G G86C U90G A97G U145C
C27A G46A U53A U56G A91C A106C A110G A138G
A28G A138C C149A
C27U C43A A97U A150G
C27U G92C U146C U151G
C27A U61A G86A
C27U A40C G59C G92C A98G C108U C132A U151G
C27A G86A G94A U102G C132U G133U U134A
C27G A29G C95U
C27G C76A C93G
C27G U33C G68U
A26U U45A G83U G92C A122U
C27U G70A C87A
C27U G50C C114G
C27A U44A G48A
C27A U82G C87G G94A U135A
C27G C72A C96A A107U
A26U U33A A47G G62A G94U C105U A110U
C27A G50C G80A C95U
A26U G68C G86U C103G A115C
A28C C32U A52U U53G C93A G112C G143U
C27A A28U C38U A39U A47U
A28C G46C G84A C85U
C27G C54A C93A A115U
A28G A107G U144C
C27U C57A A66C G71A C96A U130A
A28C C43U C76G A110G A138U
C27U A41C A52C C54G C95G U102A
C27A U56A A60U A122C U144A
C27A U33C C85A A106G U144A U151C
C27U A97G C131A U151C
C27A G88A C96A A97G G128U U135G U145A
C27A C75U C93G A115U
C27G A39C G59C C85G C105G
A26U U78A C96A C116U U146C
C27U G86A U145A G152A
C27G A39U G74A C87G U102G
A26U C96U C108G U127A
A28C C54A C95A C105U U145A
C27A A28G A40C A47C A73C U77C C99G
C27U C99G G133U G141A C149G
C27G A52G G92A
A28C U56A C57A G68A C76A G88U G94A A138C
A28C A30U A60C C75A C76U C93A C95G
A28C A73C U78G G86C A110U A113U A137C A138U
C27G C87G G133C
C27A G74A C76G G86C G128A C129U U144C
A26U C93U C118U C125A
C27U U139A
C27G C38A C54U G92U U134G
C27A C85A G86U A91C U101A C118G
A28C C57U G59A U78G G86A A115U
A28C C69U
A28G A52U G84A C103A

Polymerase ribozyme fitness (log ratio), -0.836:
C27U G58A C96U C116U C118G U144G

Polymerase ribozyme fitness (log ratio), -3.98:
C27G G83A A89C

Polymerase ribozyme fitness (log ratio), -1.01:
C27U A47C

Polymerase ribozyme fitness (log ratio), -0.747:
C27U C57A

Polymerase ribozyme fitness (log ratio), -1.76:
A26U C54U C95U

Polymerase ribozyme fitness (log ratio), -4:
C27G C96U A106G

Polymerase ribozyme fitness (log ratio), -3.73:
A26U G80A A98C U101G

Polymerase ribozyme fitness (log ratio), -2.1:
C27U C57A C95U

Polymerase ribozyme fitness (log ratio), -2.94:
C27U G86A

Polymerase ribozyme fitness (log ratio), -2.12:
C27U C54U G83U

Polymerase ribozyme fitness (log ratio), -1.57:
C27U G58C C123U

Polymerase ribozyme fitness (log ratio), -3.33:
C27U C63G C95U C96U C99G
